This is an account of results in patent EP4751739A1, “ANTIBODY-DRUG CONJUGATE TARGETING C-MET AND MEDICAL USE THEREOF” (Jiangsu Hengrui Pharmaceuticals Co., Ltd., priority 2023, dated 2025).

Assay [1] deals with human lung cancer EBC-1 cells. Kind of assay: Endocytosis by c-Met-positive cells (flow cytometry). Conditions: 20 nM. It is filed as cell-based. As for the experimental part: Teli-VcMMAE (namely ABBV-399, in which the toxin is MMAE) and its naked antibody ABT-700 were prepared in-house based on the telisotuzumab vedotin structure disclosed on page 319 of WHO Drug Information, Vol. 30, No. 2, 2016.
The cell density was adjusted to 2 × 10^6 cells/mL using a FACS buffer (prepared with PBS 1×, pH 7.2, and 2% FBS). The suspension was added to a 96-well round-bottom plate at 50 µL/well. Groups were set as follows: endocytosis for 0 h, endocytosis for 0.5 h, endocytosis for 2 h, endocytosis for 4 h, and endocytosis for 24 h. A 40 nM (2×) dilution of an antibody or antibody-drug conjugate was added at 50 µL/well. […] A final concentration of 20 nM was achieved. The plate was incubated at 4 °C for 60 min. After the incubation, the plate was centrifuged at 400 g for 5 min, the supernatant was discarded, and the plate was washed twice with 200 µL of FACS Buffer per well. The cells were resuspended in a culture medium and subjected to 0 h, 0.5 h, 2 h, 4 h, or 24 h of endocytosis in an incubator (37 °C, 5% CO2). After different endocytosis periods, the cells were digested with TrypLE™ Express Enzyme to form a single cell suspension. After 1 wash with 200 µL of FACS buffer, a secondary antibody (Alexa Fluor® 647 AffiniPure Mouse Anti-Human IgG(H+L), 1:500, Jackson, 209-605-008) diluted in FACS buffer was added, and the plate was incubated in a dark place at 4 °C for 30 min. The plate was centrifuged at 400 g for 5 min, the supernatant was discarded, and the plate was washed twice with 200 µL of FACS buffer per well. The cells were resuspended in 50 µL of FACS buffer, and 50 µL of 4% paraformaldehyde was then added for fixation. After thorough mixing, the plate was left to stand at 4 °C in a dark place. After all samples were collected, Alexa Fluor® 647 fluorescence signals were detected using a flow cytometer. Data were analyzed using Flowjo software, and gMFI values were calculated. Endocytosis ratio = (0-h endocytosis gMFI - n-h endocytosis gMFI)/0-h endocytosis gMFI. Table 4. Evaluation of endocytosis performance
In general terms: In flow cytometry, cells or beads pass a laser one at a time.

Assay [2] relates to human gastric cancer MKN-45 nude mouse subcutaneous xenograft tumor model. Kind of assay: In vivo efficacy, MKN-45 xenograft tumor model. Also on record: species or system Balb/c Nude mice. Conditions: 3 mg/kg single i.p. (D0). As for the experimental part: Female Balb/c Nude mice were subcutaneously inoculated with 5 × 10^6 MKN-45 cells to establish a subcutaneous tumor model. […] Each group was given a single (D0) intraperitoneal injection. The body weight and tumor size of the animals were measured twice weekly during the experiment.

B1: Teli-VcMMAE: ABBV-399, in which the toxin is MMAE; prepared in-house based on the telisotuzumab vedotin structure (conjugate, chains of the INN, looked up)
VH: QVQLVQSGAEVKKPGASVKVSCKASGYIFTAYTMHWVRQAPGQGLEWMGWIKPNNGLANYAQKFQGRVTMTRDTSISTAYMELSRLRSDDTAVYYCARSEITTEFDYWGQGTLVTVSS
VL: DIVMTQSPDSLAVSLGERATINCKSSESVDSYANSFLHWYQQKPGQPPKLLIYRASTRESGVPDRFSGSGSGTDFTLTISSLQAEDVAVYYCQQSKEDPLTFGGGTKVEIK
modifications: vc-MMAE payload
notes: ABBV-399, in which the toxin is MMAE; prepared in-house based on the telisotuzumab vedotin structure
Take B1: the Endocytosis ratio% in assay [1] (0 h) came to 0.000%; in assay [1] (0.5 h), 4.361%; in assay [1] (2 h), 31.734%; in assay [1] (24 h) it was 97.339%. The “Mean tumor volume (mm^3, mean ± SEM) D0” value in assay [2] (D0 (baseline at grouping)) is reported as 117± 3 mm^3. Moreover, the “Mean tumor volume (mm^3, mean ± SEM) D23” value in assay [2] (D23) is 1354 ± 327 mm^3. The “TGI (%) D23” value in assay [2] (D23) is 40.28%.
